Data as given in PMC10784701.

Target: RedM, N,N-dimethyltransferase of the reductasporine biosynthetic pathway
Assay: SEC; size-exclusion chromatography of purified RedM in solution (Fig. S3); conditions of this run not shown

stoichiometry N: 2
Substance: RedM, N,N-dimethyltransferase of the reductasporine biosynthetic pathway (enzyme)
